Data reported in patent US20050064593A1 (WALTER AND ELIZA HALL INSTITUTE OF MEDICAL RESEARCH, published 2005).
Substitutions are numbered along the chain they refer to. Names and notes keep the numbering of the source.

B1: Bmf (Bcl-2 modifying factor), mouse, wild-type, as used in the yeast 2-hybrid system (other)
chain: MEPPQCVEELEDDVFQSEDGEPGTQPGGLLSADLFAQSQLDCPLSRLQLFPLTHCCGPGLRPISQEDKATQTLSPASPSQGVMLPCGVTEEPQRLFYGNAGYRLPLPASFPAGSPLGEQPPEGQFLQHRAEVQIARKLQCIADQFHRLHTQQHQQNRDRAWWQVFLFLQNLALNRQENREGVGPW
notes: The clone first isolated with Mcl-1 as bait was a partial one lacking the 5' end; Mouse bmf was later subcloned as bait; also called the novel protein; not shown: GAL4 domain of the yeast 2-hybrid vector (pAD-GAL4-2.1 for the library clone, a pGBT-9 derivative for Bmf as bait); limi
B2: Bmf A69P mutant as tested in yeast (other)
chain: B1 chain with A69P
notes: Yeast construct of the mutant is not described further; not shown: GAL4 domain of the yeast 2-hybrid vector
B3: Bmf AAA mutant (D67K68A69:>AAA) as tested in yeast (other)
chain: B1 chain with D67A, K68A
notes: Yeast construct of the mutant is not described further; also called AAA mutation; not shown: GAL4 domain of the yeast 2-hybrid vector

Assays:
[1] = biological target: T1, mouse Mcl-1 lacking its hydrophobic C-terminus (yeast 2-hybrid bait in pGBT-9) (mouse, UniProt P97287 1-307); test: yeast 2-hybrid screen
T1 construct: not shown: GAL4 domain of pGBT-9
T1 sequence (P97287 1-307): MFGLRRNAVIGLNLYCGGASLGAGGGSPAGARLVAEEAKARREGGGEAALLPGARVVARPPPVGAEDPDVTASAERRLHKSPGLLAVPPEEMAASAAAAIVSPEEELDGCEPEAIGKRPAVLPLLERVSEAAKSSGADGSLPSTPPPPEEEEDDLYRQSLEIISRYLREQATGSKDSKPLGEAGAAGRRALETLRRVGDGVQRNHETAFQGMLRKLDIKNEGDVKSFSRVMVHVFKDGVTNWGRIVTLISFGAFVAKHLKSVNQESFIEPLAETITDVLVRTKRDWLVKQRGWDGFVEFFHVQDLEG

[2] = biological target: mouse dynein light chain 2 (DLC2) (mouse, UniProt Q9D0M5 1-89); test: yeast 2-hybrid
Chain of mouse dynein light chain 2 (DLC2) (Q9D0M5 whole entry): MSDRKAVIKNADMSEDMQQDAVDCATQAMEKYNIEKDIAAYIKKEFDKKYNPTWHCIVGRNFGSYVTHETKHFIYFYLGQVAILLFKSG

Binder | binding result [1] | binding result [2]
B1 | binds | 
B2 |  | no binding
B3 |  | no binding
